In patent publication EP3912994A1:

Key:
[1] = molecular target: Tenascin-C (TNC), recombinant full length; assay: SPR (Biacore 2000), TNC immobilised on CM5 chip, 1:1 Langmuir model
[2] = molecular target: Tenascin-C (TNC) expressed by the NT193M tumor cell (mouse) (UniProt Q80YX1); assay: cell-based or functional assay
[3] = molecular target: fibronectin type III domains 1-5 of human tenascin-C (human) (UniProt P24821); assay: ELISA, TN1-5 coated, biotinylated FN12-14 titrated 1 nM to 1 µM
Sequence of fibronectin type III domains 1-5 of human tenascin-C (human) (P24821 625-1075, form in doubt): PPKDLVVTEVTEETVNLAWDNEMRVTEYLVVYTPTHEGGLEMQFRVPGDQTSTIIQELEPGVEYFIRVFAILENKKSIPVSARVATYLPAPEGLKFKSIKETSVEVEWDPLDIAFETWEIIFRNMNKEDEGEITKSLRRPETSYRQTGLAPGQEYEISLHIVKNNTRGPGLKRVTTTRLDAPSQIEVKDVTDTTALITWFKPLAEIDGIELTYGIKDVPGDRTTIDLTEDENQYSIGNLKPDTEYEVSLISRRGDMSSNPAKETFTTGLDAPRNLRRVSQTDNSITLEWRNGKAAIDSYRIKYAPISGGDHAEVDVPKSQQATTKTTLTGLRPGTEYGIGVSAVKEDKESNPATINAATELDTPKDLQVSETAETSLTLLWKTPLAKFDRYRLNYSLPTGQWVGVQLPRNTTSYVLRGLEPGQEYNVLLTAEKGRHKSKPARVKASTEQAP

Sequence of Tenascin-C (TNC) expressed by the NT193M tumor cell (mouse) (Q80YX1 23-2110 limits assumed): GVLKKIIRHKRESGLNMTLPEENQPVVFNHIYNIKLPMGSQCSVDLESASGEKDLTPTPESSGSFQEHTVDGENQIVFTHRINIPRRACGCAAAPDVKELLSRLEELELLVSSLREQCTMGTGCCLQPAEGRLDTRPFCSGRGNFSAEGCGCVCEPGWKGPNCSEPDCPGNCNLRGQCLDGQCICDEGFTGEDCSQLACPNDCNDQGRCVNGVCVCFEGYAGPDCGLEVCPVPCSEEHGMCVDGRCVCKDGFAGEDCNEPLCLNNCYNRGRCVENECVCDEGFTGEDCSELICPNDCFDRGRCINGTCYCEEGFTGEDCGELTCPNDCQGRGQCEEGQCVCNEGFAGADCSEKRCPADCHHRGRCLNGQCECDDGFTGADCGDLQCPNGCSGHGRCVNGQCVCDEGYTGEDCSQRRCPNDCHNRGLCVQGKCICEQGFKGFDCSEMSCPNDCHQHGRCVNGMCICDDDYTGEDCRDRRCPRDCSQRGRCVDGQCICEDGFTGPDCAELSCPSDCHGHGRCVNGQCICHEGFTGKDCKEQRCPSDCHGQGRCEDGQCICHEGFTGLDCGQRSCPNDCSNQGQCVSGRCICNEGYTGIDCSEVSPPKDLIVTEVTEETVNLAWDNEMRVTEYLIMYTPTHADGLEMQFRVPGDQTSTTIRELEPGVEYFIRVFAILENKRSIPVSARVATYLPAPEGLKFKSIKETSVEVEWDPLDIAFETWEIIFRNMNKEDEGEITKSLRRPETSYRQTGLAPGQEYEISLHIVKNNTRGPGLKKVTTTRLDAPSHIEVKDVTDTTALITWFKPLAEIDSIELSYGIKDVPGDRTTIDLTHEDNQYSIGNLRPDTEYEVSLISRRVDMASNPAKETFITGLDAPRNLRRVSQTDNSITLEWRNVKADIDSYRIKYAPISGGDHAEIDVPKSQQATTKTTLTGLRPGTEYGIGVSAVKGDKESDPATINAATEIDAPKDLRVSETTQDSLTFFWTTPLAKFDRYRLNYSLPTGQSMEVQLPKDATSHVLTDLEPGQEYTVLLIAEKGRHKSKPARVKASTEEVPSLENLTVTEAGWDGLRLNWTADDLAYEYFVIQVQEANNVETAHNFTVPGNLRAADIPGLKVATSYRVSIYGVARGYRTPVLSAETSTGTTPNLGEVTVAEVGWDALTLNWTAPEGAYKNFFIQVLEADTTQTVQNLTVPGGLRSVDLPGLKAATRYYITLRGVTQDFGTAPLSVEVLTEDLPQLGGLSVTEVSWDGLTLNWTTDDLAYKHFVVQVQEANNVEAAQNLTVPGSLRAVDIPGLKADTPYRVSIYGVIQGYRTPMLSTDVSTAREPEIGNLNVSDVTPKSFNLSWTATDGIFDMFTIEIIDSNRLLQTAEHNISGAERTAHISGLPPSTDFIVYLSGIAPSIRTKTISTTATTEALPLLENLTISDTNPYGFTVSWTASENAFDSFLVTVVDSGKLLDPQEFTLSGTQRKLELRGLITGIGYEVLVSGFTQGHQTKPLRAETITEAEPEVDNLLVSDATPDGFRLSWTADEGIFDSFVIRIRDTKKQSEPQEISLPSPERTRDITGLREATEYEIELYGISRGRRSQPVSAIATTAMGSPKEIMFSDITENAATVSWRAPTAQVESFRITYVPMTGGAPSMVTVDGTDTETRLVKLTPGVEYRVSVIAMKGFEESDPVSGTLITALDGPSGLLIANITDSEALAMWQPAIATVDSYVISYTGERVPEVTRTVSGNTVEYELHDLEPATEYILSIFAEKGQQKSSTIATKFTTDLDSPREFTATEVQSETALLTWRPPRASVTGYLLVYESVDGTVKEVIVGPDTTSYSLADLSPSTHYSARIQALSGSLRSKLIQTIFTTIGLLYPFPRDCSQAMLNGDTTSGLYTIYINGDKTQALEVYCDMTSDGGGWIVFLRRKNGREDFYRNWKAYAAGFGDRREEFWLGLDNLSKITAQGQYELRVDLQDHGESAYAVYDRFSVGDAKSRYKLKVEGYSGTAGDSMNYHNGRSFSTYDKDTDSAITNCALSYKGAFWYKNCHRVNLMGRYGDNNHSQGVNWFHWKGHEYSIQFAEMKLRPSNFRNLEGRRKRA

Substance | Kd [1] | TRAIL-induced killing of NT193M cells [2] | Kd [3]
CCL21 (R&D Systems 457-6C) (from UniProt P84444 24-133) (ligand) | 58 nM | – | –
CXCL12 (R&D Systems 460-SD-050) (from UniProt P40224 22-89) (ligand) | 790 nM | – | –
Mouse recombinant SU… (Enzo Lifesciences ALX-201-130-C020) (from UniProt P50592 99-291) (ligand) | 2.8 nM | 5% | –
fibronectin type III domains 12-14 of human fibronectin (double Strep-tagged) (from UniProt P02751 1635-1908) | – | – | 52 nM
